Data taken from US20220227853A1 (US Dept. of Health and Human Services, published 2022).

Target: T1, full-length PfCSP on the surface of transgenic P. berghei sporozoites (Pb-PfCSP) (Plasmodium falciparum, UniProt Q7K740 19-374)
T1 construct: whole, on cells; also called Pb-PfCSP SPZ; Pb-PfCSP SPZ GFP/Luc
Test: flow cytometry on Pb-PfCSP sporozoites, mAb 20 µg/mL, MFI

T1 sequence (Q7K740 19-374): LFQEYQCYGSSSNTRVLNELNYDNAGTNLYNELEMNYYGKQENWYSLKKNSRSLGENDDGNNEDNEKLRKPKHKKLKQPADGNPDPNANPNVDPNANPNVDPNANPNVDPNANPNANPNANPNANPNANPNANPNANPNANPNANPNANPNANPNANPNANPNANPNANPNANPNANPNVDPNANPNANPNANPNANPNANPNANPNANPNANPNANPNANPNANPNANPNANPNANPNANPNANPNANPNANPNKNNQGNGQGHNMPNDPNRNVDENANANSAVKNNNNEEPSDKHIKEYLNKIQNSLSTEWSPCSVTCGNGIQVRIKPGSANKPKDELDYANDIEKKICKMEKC

B1: CIS43 human monoclonal antibody (antibody, V domains shown)
VH: QVQLVQSGAEVKKPGASVKVSCKASGYTFTSYAIHWVRQAPGQRLEWMGWIKAGNGNTRYSQKFQDRVTITRDTSTTTAYMELSSLRSEDTAVYYCALLTVLTPDDAFDIWGQGTMVTVSS
VL: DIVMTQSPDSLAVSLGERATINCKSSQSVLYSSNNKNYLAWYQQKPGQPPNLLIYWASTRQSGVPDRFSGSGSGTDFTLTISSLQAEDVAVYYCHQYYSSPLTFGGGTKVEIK
notes: also called CIS43 IgG
  binding result: binds
